# From article PMC7888556 (Biochemical and biophysical research communications, 2017)
# T1: CEP192-WT (residues 507-1065 of human CEP192, C-terminal V5 and 6XHis tags) (human, UniProt Q8TEP8 507-1065)
# T1 sequence (looked up): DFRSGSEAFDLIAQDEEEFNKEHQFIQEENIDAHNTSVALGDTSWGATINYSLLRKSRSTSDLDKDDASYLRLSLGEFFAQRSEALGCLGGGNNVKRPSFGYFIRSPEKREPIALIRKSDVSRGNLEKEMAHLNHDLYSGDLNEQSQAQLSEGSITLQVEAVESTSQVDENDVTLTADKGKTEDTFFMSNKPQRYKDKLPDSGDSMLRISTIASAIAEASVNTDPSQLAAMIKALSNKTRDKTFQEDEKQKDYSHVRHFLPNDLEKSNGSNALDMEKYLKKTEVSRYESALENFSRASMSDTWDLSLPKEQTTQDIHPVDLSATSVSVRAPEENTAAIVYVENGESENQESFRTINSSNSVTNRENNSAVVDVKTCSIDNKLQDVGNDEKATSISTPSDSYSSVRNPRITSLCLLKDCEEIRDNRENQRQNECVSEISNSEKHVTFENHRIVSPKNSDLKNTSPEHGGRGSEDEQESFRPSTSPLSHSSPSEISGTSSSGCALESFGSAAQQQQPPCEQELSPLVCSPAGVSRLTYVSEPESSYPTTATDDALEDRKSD
# B1: Human PP1β (type one protein phosphatase, purified) (enzyme, UniProt P62140 1-327, looked up)
# chain: MADGELNVDSLITRLLEVRGCRPGKIVQMTEAEVRGLCIKSREIFLSQPILLELEAPLKICGDIHGQYTDLLRLFEYGGFPPEANYLFLGDYVDRGKQSLETICLLLAYKIKYPENFFLLRGNHECASINRIYGFYDECKRRFNIKLWKTFTDCFNCLPIAAIVDEKIFCCHGGLSPDLQSMEQIRRIMRPTDVPDTGLLCDLLWSDPDKDVQGWGENDRGVSFTFGADVVSKFLNRHDLDLICRAHQVVEDGYEFFAKRQLVTLFSAPNYCGEFDNAGGMMSVDETLMCSFQILKPSEKKAKYQYGGLNSGRPVTPPRTANPPKKR
# Biological target: T1, CEP192-WT (residues 507-1065 of human …)
# Experiment: pull-down
binder,measurement,value
B1,binding result,binds
